From patent US20190177419A1 (BERGEN TEKNOLOGIOVERFORING, published 2019)

T1: recombinant cyno-Axl-Fc (extracellular domain of cynomolgus monkey Axl fused to human Fc) (cynomolgus monkey (Macaca fascicularis), UniProt P30530 26-451 (human entry))
T1 construct: also called Axl from cynomolgus monkey; not shown: human Fc
T1 chain: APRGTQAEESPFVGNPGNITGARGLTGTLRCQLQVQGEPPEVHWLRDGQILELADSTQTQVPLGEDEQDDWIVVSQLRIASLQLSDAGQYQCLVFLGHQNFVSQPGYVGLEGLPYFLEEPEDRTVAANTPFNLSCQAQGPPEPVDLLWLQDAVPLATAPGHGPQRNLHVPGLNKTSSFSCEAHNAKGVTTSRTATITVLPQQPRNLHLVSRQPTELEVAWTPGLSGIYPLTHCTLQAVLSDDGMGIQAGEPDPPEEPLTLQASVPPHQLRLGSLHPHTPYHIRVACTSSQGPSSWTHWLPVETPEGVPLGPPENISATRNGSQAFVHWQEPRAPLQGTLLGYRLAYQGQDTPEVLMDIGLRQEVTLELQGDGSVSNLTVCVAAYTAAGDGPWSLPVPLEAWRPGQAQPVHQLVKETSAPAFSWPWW

T2: recombinant human Mer-Fc chimera (R&D Systems, Cat. no. 891-MR) (human, UniProt Q12866 21-505)
T2 construct: Bought reagent; also called rhMer-Fc; rhMer; not shown: Fc part (and any linker or tag) of the bought chimera; not described
T2 sequence: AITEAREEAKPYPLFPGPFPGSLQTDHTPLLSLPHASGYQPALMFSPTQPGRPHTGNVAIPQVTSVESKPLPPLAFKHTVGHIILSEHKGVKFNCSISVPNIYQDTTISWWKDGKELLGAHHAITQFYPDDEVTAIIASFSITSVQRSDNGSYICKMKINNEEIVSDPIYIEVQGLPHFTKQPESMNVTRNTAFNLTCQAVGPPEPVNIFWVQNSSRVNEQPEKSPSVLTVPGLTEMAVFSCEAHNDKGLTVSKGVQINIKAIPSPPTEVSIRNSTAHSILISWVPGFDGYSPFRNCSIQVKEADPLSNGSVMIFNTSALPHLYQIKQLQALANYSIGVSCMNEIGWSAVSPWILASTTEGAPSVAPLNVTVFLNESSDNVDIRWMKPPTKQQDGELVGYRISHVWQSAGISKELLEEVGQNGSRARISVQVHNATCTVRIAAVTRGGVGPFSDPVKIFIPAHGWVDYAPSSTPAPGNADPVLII

T3: recombinant human Tyro3/Dtk-Fc chimera (R&D Systems, Cat. no. 859-DK) (human, UniProt Q06418 41-429)
T3 construct: Bought reagent; also called rhTyro3/Dtk-Fc; rhTyro3; not shown: Fc part (and any linker or tag) of the bought chimera; not described
T3 sequence: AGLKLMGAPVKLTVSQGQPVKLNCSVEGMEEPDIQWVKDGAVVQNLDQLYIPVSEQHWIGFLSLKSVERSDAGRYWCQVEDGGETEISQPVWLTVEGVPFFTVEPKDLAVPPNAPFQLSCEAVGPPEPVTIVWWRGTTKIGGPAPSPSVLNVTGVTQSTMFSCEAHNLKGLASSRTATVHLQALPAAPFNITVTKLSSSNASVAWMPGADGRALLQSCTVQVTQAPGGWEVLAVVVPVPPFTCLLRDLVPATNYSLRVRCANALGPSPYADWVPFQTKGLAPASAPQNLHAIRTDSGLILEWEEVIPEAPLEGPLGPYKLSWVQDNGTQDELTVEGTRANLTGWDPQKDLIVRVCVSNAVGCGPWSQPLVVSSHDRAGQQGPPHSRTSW


Legend:
[1] = molecular target: T4, recombinant human Axl-Fc chimera (R&D Systems, Cat. no. 154-AL) (human, UniProt P30530 26-451); assay: SPR, Biacore 3000, 25 C, rhAxl-Fc immobilised on CM5 (190 RU), antibody injected, 1:1 Langmuir model
T4 construct: extracellular domain; Bought reagent; also called rhAxl-Fc; rhAxl; not shown: Fc part (and any linker or tag) of the bought chimera; not described
Procedure: (§1) The precise kinetic analysis was performed using BIA evaluation software and curve fitting according to 1:1 Langmuir binding model.

[2] = molecular target: T5, recombinant mouse Axl-Fc chimera (R&D Systems, Cat. no. 854-AX) (mouse, UniProt Q00993 19-445); assay: SPR (Biacore 3000), rmAxl-Fc immobilised on a CM5 chip, antibody injected for 3 min [panel 10G5]
T5 construct: Bought soluble reagent; also called rmAxl-Fc; rmAxl; not shown: Fc part (and any linker or tag) of the bought chimera; not described
Procedure: (§2) The binding experiments were performed using Biacore 3000 instrument (GE Healthcare) at 25° C. The soluble recombinant antigens corresponding to human Axl (rhAxl-Fc chimera; R&D Systems, Cat. no. 154-AL), mouse Axl (rmAxl-Fc chimera; R&D Systems, R&D Systems; Cat. no. 854-AX) and human Tyro3 (rhTyro3/Dtk-Fc chimera; R&D Systems, Cat. no. 859-DK) were immobilized on the surface of CM5 sensor chip using amine coupling at the surface density of 1,308.0, 2,115.9 and 1,429.0 RU, respectively. The Biacore runs were performed in an automatic mode using Binding analysis wizard.

[3] = molecular target: T1, recombinant cyno-Axl-Fc (extracellular …); assay: SPR (Biacore 3000), cyno-Axl-Fc immobilised on a CM5 chip, antibody injected at 10 µg/mL for 3 min, 5 min dissociation [panel 10G5]
Procedure: (§3) The sequence of Axl receptor from cynomolgus monkey (Macace fascicularis; SEQ ID NO.43) was retrieved from WO2009062690A1. Based on the sequence, recombinant extracellular domain of cyno-Axl was generated by transient expression in CHO cells as a fusion protein with human Fc. […] The binding experiments were performed using Biacore 3000 instrument (GE Healthcare) at 25° C. […] The Biacore runs were performed in an automatic mode using Binding analysis wizard.

[4] = molecular target: T4, recombinant human Axl-Fc chimera (R&D …); assay: SPR, Biacore 3000, 25 C, rhAxl-Fc immobilised on CM5 (190 RU); half-life of the complex as ln2/koff
Procedure: as §1

[5] = molecular target: T2, recombinant human Mer-Fc chimera (R&D …); assay: SPR (Biacore 3000), rhMer-Fc immobilised on a CM5 chip, antibody injected for 3 min [panel 10G5]
Procedure: (§4) All binding experiments were performed using Biacore 3000 instrument (GE Healthcare) at 25° C. Soluble recombinant antigens corresponding to the extracellular domains of members of the human TAM receptor family, Axl (rhAxl-Fc chimera; R&D Systems, Cat. no. 154-AL), Mer (rhMer-Fc chimera; R&D Systems, Cat. no. 891-MR) and Tyro3 (rhTyro3/Dtk-Fc chimera; R&D Systems, Cat. no. 859-DK) were immobilized on the surface of CM5 sensor chip using amine coupling at the surface density of 393.0, 303.6 and 364.0 resonance units (RU), respectively. The Biacore run was performed in an automatic mode using Binding to analysis wizard.

[6] = molecular target: T3, recombinant human Tyro3/Dtk-Fc chimera …; assay: SPR (Biacore 3000), rhTyro3/Dtk-Fc immobilised on a CM5 chip, antibody injected for 3 min [panel 10G5]
Procedure: as §4

[7] = molecular target: T6, human Axl receptor on cells (Axl-positive MDA-MB-231 cells; HeLa cells; Axl+ cells) (human, UniProt P30530 26-894); assay: flow cytometry on MDA-MB-231 cells, detection with APC-conjugated donkey anti-human IgG (H+L) F(ab')2
T6 construct: whole, on cells; Endogenous Axl of human cell lines; also called Axl-positive cells
Procedure: The cell staining was measured using Accuri C6 flow cytometer (BD Biosciences). MFI, geometric mean fluorescence intensity.
For flow cytometry, the adherent cells in culture were washed with PBS, detached by treatment with trypsin (0.25%) for 1 min and hitting culture dish for full detachment. Trypsin was quenched by adding into the tissue flask the complete medium followed by washing the cells with PBS. During the washing steps, the cells were collected by centrifugation at 200 g for 5 min. The antibody was diluted for total concentration in PBS containing 0.02% bovine serum albumin (BSA). Cell staining was performed using 200 μL of cell suspension comprising 10⁵ cells for 20 min at room temperature. The cell-bound antibodies were detected with APC-conjugated donkey anti-human or anti-mouse, respectively, IgG (H+L) F(ab′)₂ fragments (Jackson ImmunoResearch). After two washing steps with PBS/0.02% BSA, the cells were resuspended in 200 μL and kept on ice before analysis on Accuri C6 flow cytometer (BD Biosciences).

[8] = molecular target: T1, recombinant cyno-Axl-Fc (extracellular …); assay: SPR (Biacore 3000), cyno-Axl-Fc immobilised on a CM5 chip, antibody injected at 10 µg/mL for 3 min, 5 min dissociation [panel 10C9]
Procedure: as §3

[9] = molecular target: T5, recombinant mouse Axl-Fc chimera (R&D …); assay: SPR (Biacore 3000), rmAxl-Fc immobilised on a CM5 chip, antibody injected for 3 min [panel 10C9]
Procedure: as §2

[10] = molecular target: T2, recombinant human Mer-Fc chimera (R&D …); assay: SPR (Biacore 3000), rhMer-Fc immobilised on a CM5 chip, antibody injected for 3 min [panel 10C9]
Procedure: as §4

[11] = molecular target: T3, recombinant human Tyro3/Dtk-Fc chimera …; assay: SPR (Biacore 3000), rhTyro3/Dtk-Fc immobilised on a CM5 chip, antibody injected for 3 min [panel 10C9]
Procedure: as §4

[12] = molecular target: T6, human Axl receptor on cells …; assay: flow cytometry on MDA-MB-231 cells, detection with APC-conjugated donkey anti-mouse IgG (H+L) F(ab')2

T5 sequence (Q00993 other isoform, or with tags, fused parts or gaps mutant): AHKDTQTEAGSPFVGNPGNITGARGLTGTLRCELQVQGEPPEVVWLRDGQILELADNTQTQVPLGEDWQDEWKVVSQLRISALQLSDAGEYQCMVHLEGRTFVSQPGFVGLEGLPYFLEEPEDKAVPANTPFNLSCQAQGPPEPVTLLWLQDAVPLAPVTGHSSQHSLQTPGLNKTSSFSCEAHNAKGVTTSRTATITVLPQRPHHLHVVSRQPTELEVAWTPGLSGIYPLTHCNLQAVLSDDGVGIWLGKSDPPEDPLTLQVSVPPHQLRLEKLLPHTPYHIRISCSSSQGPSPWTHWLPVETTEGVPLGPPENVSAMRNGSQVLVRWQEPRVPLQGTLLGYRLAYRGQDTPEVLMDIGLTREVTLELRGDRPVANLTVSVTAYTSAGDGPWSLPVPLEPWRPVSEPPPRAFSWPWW

Row | Kd [1] [nM] | koff [1] [s⁻¹] | kon [1] [M⁻¹ s⁻¹] | binding result [2] | binding result [3] | Half-life (t1/2) [4] [min] | binding result [5] | binding result [6] | EC50 (read off the curve) [7] [nM] | binding result [8] | binding result [9] | binding result [10] | binding result [11] | EC50 (read off the curve) [12] [nM] | Binder
1 | 0.53 | 0.000439 | 829000 | no binding (tested: 10 µg/mL) | binds | 26.3 | no binding (tested: 10 µg/mL) | no binding (tested: 10 µg/mL) |  |  |  |  |  |  | mouse monoclonal antibody 10G5 (from hybridoma WR-10G5-E5) (antibody, IgG1, V domains shown, Whole mouse antibody purified from hybridoma supernatant; also called MAb 10G5) VH: QVQLQQSGAELVRPGASVKLSCKASGYSFTDFYINWVRQRPGQGLEWIARIFPGGDNTYYNEKFKGKATLTAEESSSTAYIQLSSLTSEDSAVYFCARRGLYYAMDYWGQGISVTVSS VL: DVLMTQTPLSLPVSLGDQASISCRSSQSLVHSNGIPYLHWYLQKPGQSPKLLIYRVSNRFSGVPDRFSGSGSGTDFTLKISRVEAEDLGVYFCSQGTHVPPTFGGGTKLEIK
2 | 0.103 | 0.000169 | 1.64e+06 |  |  | 68.4 |  |  | ~0.2 |  |  |  |  |  | chimeric (mouse variable/human constant) IgG1 antibody c10G5 (antibody, V domains shown, 10G5 VH and VL joined in frame to human IgG1 and C-kappa constant domains, made in CHO cells; also called chimeric 10G5; not shown: constant domains of the human IgG1 heavy chain; constant domain of the human light (C-kappa) chain) VH: QVQLQQSGAELVRPGASVKLSCKASGYSFTDFYINWVRQRPGQGLEWIARIFPGGDNTYYNEKFKGKATLTAEESSSTAYIQLSSLTSEDSAVYFCARRGLYYAMDYWGQGISVTVSS VL: DVLMTQTPLSLPVSLGDQASISCRSSQSLVHSNGIPYLHWYLQKPGQSPKLLIYRVSNRFSGVPDRFSGSGSGTDFTLKISRVEAEDLGVYFCSQGTHVPPTFGGGTKLEIK

Further lines, the binder ahead of its results:

Row | Binder | Kd [1] [nM] | koff [1] [s⁻¹] | kon [1] [M⁻¹ s⁻¹] | binding result [2] | binding result [3] | Half-life (t1/2) [4] [min] | binding result [5] | binding result [6] | EC50 (read off the curve) [7] [nM] | binding result [8] | binding result [9] | binding result [10] | binding result [11] | EC50 (read off the curve) [12] [nM]
3 | mouse monoclonal antibody 10C9 (from hybridoma UT-10C9-B9) (antibody, IgG2b, V domains shown, Whole mouse antibody purified from hybridoma supernatant; Possible N-glycosylation site (NFT) in CDR-H1; also called MAb 10C9) VH: QVQLQQPGPELVKPGASVKISCKTSDYNFTRYYIHWVKQRPGQGLEWIGWIYPGTGDSKYNEKFKGRATLTADTSSSTAYMQLSSQTSEDSAVYFCARNGNYWYFDVWGAGTAVTVSS VL: DIVMTQAAPSGPVTPGESVSISCRSSKSLLHSNGNTYLYWFLQRPGQSPQLLIYRMSNLASGVPDRFSGSGSGTAFTLRISRVEAEDVGIYYCMQHREYPFTFGGGTKLEIK | 0.18 | 0.000289 | 1.61e+06 |  |  | 40 |  |  |  | binds | no binding (tested: 10 µg/mL) | no binding (tested: 10 µg/mL) | no binding (tested: 10 µg/mL) | ~0.2
4 | chimeric (mouse variable/human constant) IgG1 antibody c10C9 (antibody, V domains shown, 10C9 VH and VL joined in frame to human IgG1 and C-kappa constant domains, made in CHO cells; also called chimeric 10C9; not shown: constant domains of the human IgG1 heavy chain; constant domain of the human light (C-kappa) chain) VH: QVQLQQPGPELVKPGASVKISCKTSDYNFTRYYIHWVKQRPGQGLEWIGWIYPGTGDSKYNEKFKGRATLTADTSSSTAYMQLSSQTSEDSAVYFCARNGNYWYFDVWGAGTAVTVSS VL: DIVMTQAAPSGPVTPGESVSISCRSSKSLLHSNGNTYLYWFLQRPGQSPQLLIYRMSNLASGVPDRFSGSGSGTAFTLRISRVEAEDVGIYYCMQHREYPFTFGGGTKLEIK | 0.102 | 0.000219 | 2.16e+06 |  |  | 52.8 |  |  | ~0.2 |  |  |  |  | 
